The values below come from paper PMC3168705 (The FEBS journal, 2011).

The assay addresses McTnI_(29–211), mouse cardiac TnI with the NH2-terminal extension removed (mouse, UniProt P48787 29-211). In words: ELISA. A general note: An ELISA detects its analyte on a solid surface through an enzyme-linked reagent.

Sequence of McTnI_(29–211), mouse cardiac TnI with the NH2-terminal extension removed (P48787 29-211): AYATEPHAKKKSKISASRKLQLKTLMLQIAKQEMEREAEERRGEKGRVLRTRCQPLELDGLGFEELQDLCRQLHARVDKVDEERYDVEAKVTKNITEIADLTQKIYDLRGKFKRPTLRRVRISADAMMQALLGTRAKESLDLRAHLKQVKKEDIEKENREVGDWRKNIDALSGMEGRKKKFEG

B1: chicken fast TnC (natural protein)
chain: not shown
For B1, the binding result is recorded as “binds”.
